# Results taken from patent publication US20040152160A1 (UNIVERSITY OF SOUTH FLORIDA, published 2004).
# Molecular target: α7-2-nAChR (homomeric receptor of the rat α7-2 splice variant subunit expressed in Xenopus oocytes) (rat, UniProt Q05941 28-502)
# Experiment: summary statement; no assay given at this place
binder,measurement,value
α-bungarotoxin (ligand) IVCHTTATSPISAVTCPPGENLCYRKMWCDAFCSSRGKVVELGCAATCPSKKPYEEVTCCSTDKCNPHPKQRPG,binding result,binds
